Experimental data taken from patent publication US20230140293A1.

Tests used:
Assay in all cases: cell-based or functional assay
[1] = target: HIV-1 Env 426c.TM (N276D.N460D.N463D), Env-pseudotyped virus produced in 293T cells (HIV-1 clade C strain 426c)
[2] = target: CH0505.w4.3 Env, Env-pseudotyped virus produced in 293T cells (HIV-1)
[3] = target: HIV-1 clade C strain 426c Env on Env-pseudotyped virus produced in 293s/GnTI-/- cells (Man5-enrichment) (HIV-1)
[4] = target: CH0505TF.gly3.461 Env, Env-pseudotyped virus produced in 293S GnTI- cells (Man5-enriched) (HIV-1)
[5] = target: HIV-1 Env 426c.TM4 (S278R.G471S.N460D.N463D), Env-pseudotyped virus produced in 293S GnTI- cells (Man5-enriched) (HIV-1 clade C strain 426c)
[6] = target: CH0505TF.G458Y Env, Env-pseudotyped virus produced in 293T cells (HIV-1)
[7] = target: HIV-1 Env 426c.DM (N460D.N463D), Env-pseudotyped virus produced in 293T cells (HIV-1 clade C strain 426c)
[8] = target: CH0505TF Env, Env-pseudotyped virus produced in 293S GnTI- cells (Man5-enriched) (HIV-1)
[9] = target: HIV-1 Env 426c.TM4 (S278R.G471S.N460D.N463D), Env-pseudotyped virus produced in 293T cells (HIV-1 clade C strain 426c)
[10] = target: CH0505TF.gly3.276 Env, Env-pseudotyped virus produced in 293T cells (HIV-1)
[11] = target: HIV-1 426c.TM (N276D/N460D/N463D) Env on Env-pseudotyped virus produced in 293T cells (HIV-1)
[12] = target: HIV-1 clade C strain 426c Env on Env-pseudotyped virus produced in 293T cells (HIV-1)
[13] = target: CH0505TF.gly3.461 Env, Env-pseudotyped virus produced in 293T cells (HIV-1)
[14] = target: HIV-1 Env 426c.DM (N460D.N463D), Env-pseudotyped virus produced in 293S GnTI- cells (Man5-enriched) (HIV-1 clade C strain 426c)
[15] = target: HIV-1 426c.DM (N460D/N463D) Env on Env-pseudotyped virus produced in 293T cells (HIV-1)
[16] = target: CH0505TF.gly3.197 Env, Env-pseudotyped virus produced in 293S GnTI- cells (Man5-enriched) (HIV-1)
[17] = target: CH0505TF Env, Env-pseudotyped virus produced in 293T cells (HIV-1)
[18] = target: CH0505TF.gly4 Env, Env-pseudotyped virus produced in 293S GnTI- cells (Man5-enriched) (HIV-1)
[19] = target: HIV-1 426c.SM (N276D) Env on Env-pseudotyped virus produced in 293T cells (HIV-1)
[20] = target: HIV-1 426c.DM (N460D/N463D) Env on Env-pseudotyped virus produced in 293s/GnTI-/- cells (Man5-enrichment) (HIV-1)
[21] = target: CH0505TF.G458Y Env, Env-pseudotyped virus produced in 293S GnTI- cells (Man5-enriched) (HIV-1)
[22] = target: HIV-1 Env 426c.TM (N276D.N460D.N463D), Env-pseudotyped virus produced in 293S GnTI- cells (Man5-enriched) (HIV-1 clade C strain 426c)
[23] = target: CH0505TF.gly3.276 Env, Env-pseudotyped virus produced in 293S GnTI- cells (Man5-enriched) (HIV-1)
[24] = target: HIV-1 Env 426c.SM (N276D), Env-pseudotyped virus produced in 293T cells (HIV-1 clade C strain 426c)
[25] = target: HIV-1 426c.SM (N276D) Env on Env-pseudotyped virus produced in 293s/GnTI-/- cells (Man5-enrichment) (HIV-1)
[26] = target: CH0505TF.gly3.197 Env, Env-pseudotyped virus produced in 293T cells (HIV-1)
[27] = target: HIV-1 426c.TM (N276D/N460D/N463D) Env on Env-pseudotyped virus produced in 293s/GnTI-/- cells (Man5-enrichment) (HIV-1)
[28] = target: HIV-1 Env 426c, Env-pseudotyped virus produced in 293S GnTI- cells (Man5-enriched) (HIV-1 clade C strain 426c)
[29] = target: HIV-1 Env 426c.SM (N276D), Env-pseudotyped virus produced in 293S GnTI- cells (Man5-enriched) (HIV-1 clade C strain 426c)
[30] = target: CH0505TF.gly4 Env, Env-pseudotyped virus produced in 293T cells (HIV-1)
[31] = target: HIV-1 Env 426c, Env-pseudotyped virus produced in 293T cells (HIV-1 clade C strain 426c)

Substance	IC50 (µg/ml) in TZM-bl [1]	IC50 (µg/ml) in TZM-bl [2]	ID50/IC50 in TZM-bl [3]	IC50 (µg/ml) in TZM-bl [4]	IC50 (µg/ml) in TZM-bl [5]	IC50 (µg/ml) in TZM-bl [6]	IC50 (µg/ml) in TZM-bl [7]	IC50 (µg/ml) in TZM-bl [8]	IC50 (µg/ml) in TZM-bl [9]	IC50 (µg/ml) in TZM-bl [10]	ID50/IC50 in TZM-bl [11]	ID50/IC50 in TZM-bl [12]	IC50 (µg/ml) in TZM-bl [13]	IC50 (µg/ml) in TZM-bl [14]	ID50/IC50 in TZM-bl [15]	IC50 (µg/ml) in TZM-bl [16]	IC50 (µg/ml) in TZM-bl [17]	IC50 (µg/ml) in TZM-bl [18]	ID50/IC50 in TZM-bl [19]	ID50/IC50 in TZM-bl [20]	other results
4E10 (antibody)	0.98 µg/mL	> 50 µg/mL	4 µg/mL	12 µg/mL	1.6 µg/mL	8 µg/mL	1 µg/mL	10 µg/mL	1.66 µg/mL	17 µg/mL	0.98 µg/mL	3.32 µg/mL	16 µg/mL	3.7 µg/mL	1 µg/mL	14 µg/mL	22 µg/mL	12.3 µg/mL	1.52 µg/mL	3.7 µg/mL	IC50 (µg/ml) in TZM-bl [21]: 10 µg/mL; IC50 (µg/ml) in TZM-bl [22]: 4 µg/mL; IC50 (µg/ml) in TZM-bl [23]: 13 µg/mL; IC50 (µg/ml) in TZM-bl [24]: 1.52 µg/mL; ID50/IC50 in TZM-bl [25]: 3.8 µg/mL; IC50 (µg/ml) in TZM-bl [26]: 21 µg/mL; ID50/IC50 in TZM-bl [27]: 4 µg/mL; IC50 (µg/ml) in TZM-bl [28]: 4 µg/mL; IC50 (µg/ml) in TZM-bl [29]: 3.8 µg/mL; IC50 (µg/ml) in TZM-bl [30]: 14 µg/mL; IC50 (µg/ml) in TZM-bl [31]: 3.32 µg/mL
10-1074 (antibody)	0.16 µg/mL	> 25 µg/mL	0.03 µg/mL	> 25 µg/mL	0.02 µg/mL	> 25 µg/mL	0.1 µg/mL	> 25 µg/mL	0.06 µg/mL	> 25 µg/mL	0.16 µg/mL	0.05 µg/mL	> 25 µg/mL	0.03 µg/mL	0.1 µg/mL	> 25 µg/mL	> 25 µg/mL	> 25 µg/mL	0.12 µg/mL	0.03 µg/mL	IC50 (µg/ml) in TZM-bl [21]: > 25 µg/mL; IC50 (µg/ml) in TZM-bl [22]: 0.03 µg/mL; IC50 (µg/ml) in TZM-bl [23]: > 25 µg/mL; IC50 (µg/ml) in TZM-bl [24]: 0.12 µg/mL; ID50/IC50 in TZM-bl [25]: 0.04 µg/mL; IC50 (µg/ml) in TZM-bl [26]: > 25 µg/mL; ID50/IC50 in TZM-bl [27]: 0.03 µg/mL; IC50 (µg/ml) in TZM-bl [28]: 0.03 µg/mL; IC50 (µg/ml) in TZM-bl [29]: 0.04 µg/mL; IC50 (µg/ml) in TZM-bl [30]: > 25 µg/mL; IC50 (µg/ml) in TZM-bl [31]: 0.05 µg/mL
2219 (antibody)	> 25 µg/mL	> 25 µg/mL	> 25 µg/mL	> 25 µg/mL	> 25 µg/mL	> 25 µg/mL	> 25 µg/mL	> 25 µg/mL	> 25 µg/mL	> 25 µg/mL	> 25 µg/mL	> 25 µg/mL	> 25 µg/mL	> 25 µg/mL	> 25 µg/mL	> 25 µg/mL	> 25 µg/mL	> 25 µg/mL	> 25 µg/mL	> 25 µg/mL	IC50 (µg/ml) in TZM-bl [21]: > 25 µg/mL; IC50 (µg/ml) in TZM-bl [22]: > 25 µg/mL; IC50 (µg/ml) in TZM-bl [23]: > 25 µg/mL; IC50 (µg/ml) in TZM-bl [24]: > 25 µg/mL; ID50/IC50 in TZM-bl [25]: > 25 µg/mL; IC50 (µg/ml) in TZM-bl [26]: > 25 µg/mL; ID50/IC50 in TZM-bl [27]: > 25 µg/mL; IC50 (µg/ml) in TZM-bl [28]: > 25 µg/mL; IC50 (µg/ml) in TZM-bl [29]: > 25 µg/mL; IC50 (µg/ml) in TZM-bl [30]: > 25 µg/mL; IC50 (µg/ml) in TZM-bl [31]: > 25 µg/mL
2557 (antibody)	> 25 µg/mL	> 25 µg/mL	> 25 µg/mL	> 25 µg/mL	> 25 µg/mL	> 25 µg/mL	> 25 µg/mL	> 25 µg/mL	> 25 µg/mL	> 25 µg/mL	> 25 µg/mL	> 25 µg/mL	> 25 µg/mL	> 25 µg/mL	> 25 µg/mL	> 25 µg/mL	> 25 µg/mL	> 25 µg/mL	> 25 µg/mL	> 25 µg/mL	IC50 (µg/ml) in TZM-bl [21]: > 25 µg/mL; IC50 (µg/ml) in TZM-bl [22]: > 25 µg/mL; IC50 (µg/ml) in TZM-bl [23]: > 25 µg/mL; IC50 (µg/ml) in TZM-bl [24]: > 25 µg/mL; ID50/IC50 in TZM-bl [25]: > 25 µg/mL; IC50 (µg/ml) in TZM-bl [26]: > 25 µg/mL; ID50/IC50 in TZM-bl [27]: > 25 µg/mL; IC50 (µg/ml) in TZM-bl [28]: > 25 µg/mL; IC50 (µg/ml) in TZM-bl [29]: > 25 µg/mL; IC50 (µg/ml) in TZM-bl [30]: > 25 µg/mL; IC50 (µg/ml) in TZM-bl [31]: > 25 µg/mL
3074 (antibody)	> 25 µg/mL	0.02 µg/mL	> 25 µg/mL	10.2 µg/mL	> 25 µg/mL	9.4 µg/mL	> 25 µg/mL	> 25 µg/mL	> 25 µg/mL	14.1 µg/mL	> 25 µg/mL	> 25 µg/mL	7.3 µg/mL	> 25 µg/mL	> 25 µg/mL	> 25 µg/mL	> 25 µg/mL	5.6 µg/mL	> 25 µg/mL	> 25 µg/mL	IC50 (µg/ml) in TZM-bl [21]: > 25 µg/mL; IC50 (µg/ml) in TZM-bl [22]: > 25 µg/mL; IC50 (µg/ml) in TZM-bl [23]: 4.8 µg/mL; IC50 (µg/ml) in TZM-bl [24]: > 25 µg/mL; ID50/IC50 in TZM-bl [25]: 23 µg/mL; IC50 (µg/ml) in TZM-bl [26]: > 25 µg/mL; ID50/IC50 in TZM-bl [27]: > 25 µg/mL; IC50 (µg/ml) in TZM-bl [28]: > 25 µg/mL; IC50 (µg/ml) in TZM-bl [29]: 23 µg/mL; IC50 (µg/ml) in TZM-bl [30]: 7.2 µg/mL; IC50 (µg/ml) in TZM-bl [31]: > 25 µg/mL
3869 (antibody)	> 25 µg/mL	3.1 µg/mL	> 25 µg/mL	> 25 µg/mL	> 25 µg/mL	> 25 µg/mL	> 25 µg/mL	> 25 µg/mL	> 25 µg/mL	> 25 µg/mL	> 25 µg/mL	> 25 µg/mL	> 25 µg/mL	> 25 µg/mL	> 25 µg/mL	> 25 µg/mL	> 25 µg/mL	> 25 µg/mL	> 25 µg/mL	> 25 µg/mL	IC50 (µg/ml) in TZM-bl [21]: > 25 µg/mL; IC50 (µg/ml) in TZM-bl [22]: > 25 µg/mL; IC50 (µg/ml) in TZM-bl [23]: > 25 µg/mL; IC50 (µg/ml) in TZM-bl [24]: > 25 µg/mL; ID50/IC50 in TZM-bl [25]: > 25 µg/mL; IC50 (µg/ml) in TZM-bl [26]: > 25 µg/mL; ID50/IC50 in TZM-bl [27]: > 25 µg/mL; IC50 (µg/ml) in TZM-bl [28]: > 25 µg/mL; IC50 (µg/ml) in TZM-bl [29]: > 25 µg/mL; IC50 (µg/ml) in TZM-bl [30]: > 25 µg/mL; IC50 (µg/ml) in TZM-bl [31]: > 25 µg/mL
